Molecular target: Spike
Assay: SPR

Sequence of human angiotensin converting enzyme 2 (Q9BYF1 20-611): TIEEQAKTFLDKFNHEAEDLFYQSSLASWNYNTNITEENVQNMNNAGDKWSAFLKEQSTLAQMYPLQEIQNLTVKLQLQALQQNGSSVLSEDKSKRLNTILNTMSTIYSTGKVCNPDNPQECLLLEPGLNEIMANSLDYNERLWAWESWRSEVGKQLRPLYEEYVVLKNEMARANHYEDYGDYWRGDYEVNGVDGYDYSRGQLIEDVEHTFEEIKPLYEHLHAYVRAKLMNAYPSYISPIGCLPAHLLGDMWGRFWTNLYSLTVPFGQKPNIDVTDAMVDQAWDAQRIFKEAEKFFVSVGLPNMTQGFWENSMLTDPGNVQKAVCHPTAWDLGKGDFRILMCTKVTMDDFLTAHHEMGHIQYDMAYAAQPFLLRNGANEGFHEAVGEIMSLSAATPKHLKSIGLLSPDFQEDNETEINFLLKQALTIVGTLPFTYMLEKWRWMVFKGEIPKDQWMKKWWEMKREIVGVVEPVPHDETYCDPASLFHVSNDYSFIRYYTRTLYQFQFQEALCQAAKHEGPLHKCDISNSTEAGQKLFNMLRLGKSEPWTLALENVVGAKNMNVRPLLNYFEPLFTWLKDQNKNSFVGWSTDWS

human angiotensin converting enzyme 2 (from UniProt Q9BYF1-1 20-611) (receptor)
Kd: 370 nM

Source: PMC12500691
